Experiments:
[1] = target: VP16-C7-ER (synthetic) (UniProt P08046); experiment: cell_activity; settings: 4-OHT-induced, HeLa; no response to RU486
[2] = target: VP16-C7-PR (synthetic) (UniProt P08046); experiment: cell_activity; settings: RU486-induced, HeLa; no response to 4-OHT
[3] = target: VP64-C7-ER (Zif268 variant C7 + mER LBD G525R) (synthetic) (UniProt P08046); experiment: cell_activity; settings: HeLa luciferase, 4-OHT-induced
[4] = target: VP64-C7-PR (Zif268 variant C7 + hPR LBD aa645-914) (synthetic) (UniProt P08046); experiment: cell_activity; settings: HeLa luciferase, RU486-induced
[5] = system: B3 three-finger zinc finger protein (Sp1C framework, designed) (synthetic); experiment: EMSA; settings: Zn buffer (90 uM ZnCl2, 90 mM KCl, 1 mM MgCl2), 3 h room temperature
[6] = system: E2C-RE-VP64 (hRXRa + Drosophila EcR LBDs) (synthetic); experiment: cell_activity; settings: Ponasterone A-induced; significant basal activity

## GCGTGGGCG (double strand) [10xC7-TATA-luc]
[1]
  activity: 43 fold
[2]
  activity: 26 fold

## GAGGGTACCGCGTGGGCGAAAAAGCGTGGGCGAGTCGACTCTAGAGGGTATATAATGG (double strand) [C7 direct repeat, 3 bp spacer, TATA reporter]
[3]
  activity: 9.5 fold
[4]
  activity: 3.9 fold

## GGAGGGGAC [B3 target site oligonucleotide]
[5]
  Kd: 15 nM

## GGGGCCGGAGCCGCAGTG (double strand) [E2C-TATA-luc single E2C site]
[6]
  activity: 3 fold
